Source: patent US20090053138A1, “Stabilized Aptamers to Platelet Derived Growth Factor and their Use as Oncology Therapeutics” (priority 2002, published 2009)
Strand notation (5' to 3'): a small letter for the sugar, then the base; units joined by * are phosphorothioate-linked, units joined directly phosphodiester-linked; [ ] holds rarer units or linkages, { } end groups; capitals alone tell only the bases. r = 2'-OH (RNA); f = 2'-fluoro

B1: ARX33P1.E10: PDGF-AA (short form) aptamer, 2′-fluoro pyrimidines (SEQ ID NO: 80) (nucleic acid)
chain: rGrGrGrArArArArGfCrGrArAfUfCrAfUrAfCrAfCrArArGrAfCfCrGrGrArArAfCfUfCrGrGrAfUfUfCfUfUfCrGfCrAfUrGfUrGrGrAfUrGfCrGrAfUfCrArGfUrAfUrGfCfUfCfCrGfCfCrArGrArGrAfCfCrArAfCfCrGrArGrArA
B2: ARX33P1.D1: PDGF-AA selection clone, 2′-fluoro pyrimidines (SEQ ID NO: 77) (nucleic acid)
chain: rGrGrGrArArArArGfCrGrArAfUfCrAfUrAfCrAfCrArArGrAfUfCrGfCfCrArGrGrArGfCrArArArGfUfCrAfCrGrGrArGrGrArGfUrGrGrGrGrGfUrAfCrGrArAfUrGfCfUfCfCrGfCfCrArGrArGrAfCfCrArAfCfCrGrArGrArA
modifications: aptamer
B3: ARX33P1.E5: PDGF-AA (short form) aptamer, 2′-fluoro pyrimidines (SEQ ID NO: 79) (nucleic acid)
chain: rGrGrGrArArArArGfCrGrArAfUfCrAfUrAfCrAfCrArArGrAfCfCrGrGrGrArAfCfUfCrGrGrAfUfUfCfUfUfCrAfCrAfUrGfUrGrGrAfUrGfUrGrAfUfCrArGfUrAfUrGfCfUfCfCrGfCfCrArGrArGrAfCfCrArAfCfCrGrArGrArA
B4: ARX33P1.E11: PDGF-AA selection clone, 2′-fluoro pyrimidines (SEQ ID NO: 81) (nucleic acid)
chain: rGrGrGrArArArArGfCrGrArAfUfCrAfUrAfCrAfCrArArGrArGrArGfUrGrGrArGrGrArGrGfUrAfUrGfUrAfUrGrGfUfUfUrGfUrGfCrGfUfCfUrGrGfUrGfCrGrGfUrGfCfUfCfCrGfCfCrArGrArGrAfCfCrArAfCfCrGrArGrArA
modifications: aptamer
B5: ARX33P1.D2: PDGF-AA (short form) aptamer, 2′-fluoro pyrimidines (SEQ ID NO: 78) (nucleic acid)
chain: rGrGrGrArArArArGfCrGrArAfUfCrAfUrAfCrAfCrArArGrAfCfCrGrGrGrArAfCfUfCrGrGrAfUfUfCfUfUfCrGfCrAfUrGfUrGrGrAfUrGfCrGrAfUfCrArGfUrAfUrGfCfUfCfCrGfCfCrArGrArGrAfCfCrArAfCfCrGrArGrArA

Experiments:
[1] = biological target: T1, PDGF-AA (human short form) (Homo sapiens, UniProt P04085); assay: Dot blot binding assay, PDGF-AA human short form; details: in the presence of 0.1 mg/mL tRNA
T1 construct: purchased Roche Biomedical
Experimental: (§1) Dot blot binding assays were performed throughout the selection to monitor the protein binding affinity of the pool. Trace ^32P-labeled RNA was combined with PDGF-AA and incubated at room temperature for 30 min in 1×SHMCK plus 0.1 mg/ml tRNA for a final volume of 20 μl. The reaction was added to a dot blot apparatus (Schleicher and Schuell Minifold-1 Dot Blot, Acrylic), assembled (from top to bottom) with nitrocellulose, nylon, and gel blot membranes. RNA that is bound to protein is captured on the nitrocellulose filter, whereas the non-protein bound RNA is captured on the nylon filter. When a significant positive ratio of binding of RNA in the presence of PDGF-AA versus in the absence of PDGF-AA was seen, the pool was cloned using the TOPO TA cloning kit (Invitrogen, Carlsbad. CA) according to the manufacturer's instructions. The Round 10 pool template was cloned, and 17 sequences were obtained. Only five different sequences were seen, with two major families and one unique sequence (not of the two families). […] Clones with high affinity to PDGF-AA were prepped and screened for functionality in cell-based assays.

PDGF-AA (rat) = PDGF-AA (rat) (Rattus norvegicus, UniProt P28576); assay: Dot blot binding assay, PDGF-AA rat; details: in the presence of 0.1 mg/mL tRNA
Experimental: as §1

PDGF-AA = biological target: T2, PDGF-AA (Homo sapiens, UniProt P04085); assay: 3T3 proliferation assay (PDGF-AA induced); assay type: cell-based; details: aptamer 0-1 uM, PDGF-AA 50 ng/ml
T2 construct: purchased R&D Systems
Experimental: The assay was set up as previously described, using a titration of PDGF-AA aptamer (0-1 uM) against a constant concentration (50 ng/ml) of PDGF-AA protein (R&D Systems).

Molecule	Kd [1]	Kd (PDGF-AA (rat))	inhibition of PDGF-AA induced 3T3 cell proliferation (PDGF-AA)	PDGF-AA (human short form) Kd (nM) [1]	PDGF-AA (rat) Kd (nM) (PDGF-AA (rat))
B1	133 nM	47.1 nM	do inhibit PDGF-AA induced 3T3 cell proliferation, but are not very potent	–	–
B2	–	–	–	N.B.	N.B.
B3	117 nM	57.4 nM	do inhibit PDGF-AA induced 3T3 cell proliferation, but are not very potent	–	–
B4	–	–	–	N.B.	N.B.
B5	104 nM	51.7 nM	do inhibit PDGF-AA induced 3T3 cell proliferation, but are not very potent	–	–
